Laboratory results reported in the supplement of paper PMC6757056.
± gives the standard deviation of the averaged measurements.

B1: library; a variant is named by its letters at N, in order (parent)
chain: GCUGUCACCGAGAAACUGUGAAGUAUAUCUUAAACCUGGGCACUUAAAAGAUAUAUGGAGUUAGUAGUGCAACCUGCUCGGUCUGAUGAGUCCNNNNNNGGACGAAACAGC

Tests used:
[1] = variants of: B1; assay: FACS-Seq fitted mean relative fluorescence mCherry/BFP without ligand (log10 relative fluorescence); HEK293T; ligand: cyclic di-GMP (c-di-GMP-II aptamer); higher = higher reporter protein expression; details: ligand present: no
In short: (§1)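 Fluorescence is reported as a normalized fitted mean of sorted-bin read counts. Lentivirally transduced HEK293T libraries (mCherry ribozyme-switch reporter, EF1α-BFP marker) were enriched, treated with or without ligand for 48 h, and sorted into 6 mCherry/BFP bins for MiSeq sequencing of PCR-amplified genomic DNA. The normal fit was on log10(mCherry/BFP), scaled to five spiked-in control ribozymes.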

[2] = variants of: B1; assay: normalized RNA/DNA level without ligand (relative to sTRSVctl = 100) (log10 (% of sTRSVctl)); HEK293T; ligand: cyclic di-GMP (c-di-GMP-II aptamer); higher = less ribozyme self-cleavage, higher mRNA level; details: reporter: mCherry (pCS4076), ligand present: no
Experimental: (§2)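 Hammerhead (sTRSV) ribozyme switch libraries with a ligand aptamer grafted on stem I and a randomized N4-6 loop II, cloned into the 3' UTR of mCherry and transiently transfected into HEK293T cells; RNA-Seq 72 h post transfection with ligand added 1 h before transfection; RNA read count / plasmid DNA read count normalized to the non-cleaving sTRSVctl (x100), log10; sequences with >100 DNA reads. FACS-Seq: lentiviral library sorted into 6 bins after 48 h ligand, log-normal fit mean of mCherry/BFP scaled to controls. Printed sequences are partial switch sequences.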

[3] = variants of: B1; assay: FACS-Seq fitted mean relative fluorescence mCherry/BFP with ligand (log10 relative fluorescence); HEK293T; ligand: cyclic di-GMP (c-di-GMP-II aptamer); ligand concentration (+) FACS-Seq: 1 mM; higher = higher reporter protein expression; details: ligand present: yes
In short: as §1

[4] = variants of: B1; assay: normalized RNA/DNA level with ligand (relative to sTRSVctl = 100) (log10 (% of sTRSVctl)); HEK293T; ligand: cyclic di-GMP (c-di-GMP-II aptamer); ligand concentration (+) RNA-Seq: 1 mM; higher = less ribozyme self-cleavage, higher mRNA level; details: reporter: mCherry (pCS4076), ligand present: yes
Experimental: as §2

Variant	FACS-Seq fitted mean (log10) [1]	normalized RNA/DNA level without ligand (log10) [2]	FACS-Seq fitted mean (log10) [3]	normalized RNA/DNA level with ligand (log10) [4]
UUUAAC	0.0586 ± 0.15	1.7 ± 0.022	0.264 ± 0.026	1.84 ± 0.099
AUUAUC	-0.473 ± 0.04	1.72 ± 0.062	-0.167 ± 0.081	1.84 ± 0.13
CCAAGA	-0.572 ± 0.0069	1.47 ± 0.074	-0.208 ± 0.06	1.69 ± 0.13
UUGAUG	-0.5233 ± 0.005	1.547 ± 0.013	-0.419 ± 0.053	1.75 ± 0.14
UAUAGC	-0.313 ± 0.039	1.73 ± 0.044	-0.0839 ± 0.078	1.83 ± 0.19
UCUUAG	0.0393 ± 0.27	1.66 ± 0.05	0.27 ± 0.049	1.8 ± 0.086
AUAGUU	-0.615 ± 0.079	1.539 ± 0.0099	-0.438 ± 0.02	1.73 ± 0.089
CGGAAU	-0.644 ± 0.016	1.34 ± 0.11	-0.366 ± 0.027	1.44 ± 0.13
GAAAUG	-0.4346 ± 0.0037	1.55 ± 0.067	-0.122 ± 0.1	1.71 ± 0.11
CGUCGA	-0.179 ± 0.073	1.58 ± 0.049	0.0661 ± 0.0086	1.77 ± 0.093
GCGAUC	-0.51 ± 0.012	1.16 ± 0.039	-0.206 ± 0.014	1.34 ± 0.15
ACGGAU	-0.662 ± 0.045	1.29 ± 0.16	-0.374 ± 0.0087	1.4 ± 0.15
CGGAUU	-0.623 ± 0.0076	1.4 ± 0.18	-0.3382 ± 0.0012	1.54 ± 0.038
ACACUA	-0.717 ± 0.027	1.44 ± 0.038	-0.414 ± 0.055	1.66 ± 0.15
GAAGCG	-0.36 ± 0.013	1.841 ± 0.018	-0.268 ± 0.16	1.87 ± 0.069
CGCGUA	-0.52 ± 0.06	1.45 ± 0.16	-0.224 ± 0.062	1.638 ± 0.011
CAAUAA	-0.688 ± 0.028	1.25 ± 0.083	-0.398 ± 0.011	1.52 ± 0.074
GACCUA	-0.232 ± 0.041	1.621 ± 0.011	0.101 ± 0.016	1.77 ± 0.11

Variant	FACS-Seq fitted mean (log10) [1]	normalized RNA/DNA level without ligand (log10) [2]	FACS-Seq fitted mean (log10) [3]	normalized RNA/DNA level with ligand (log10) [4]
UCACUU	-0.404 ± 0.091	1.611 ± 0.0095	-0.0521 ± 0.15	1.77 ± 0.14
CGAGAU	-0.412 ± 0.057	1.52 ± 0.064	-0.0533 ± 0.042	1.76 ± 0.11
GUUCCA	-0.877 ± 0.03	1.65 ± 0.022	-0.674 ± 0.016	1.81 ± 0.12
CGACAA	-0.57 ± 0.068	1.29 ± 0.15	-0.273 ± 0.0065	1.54 ± 0.097
GAUCAA	-0.23 ± 0.07	1.57 ± 0.054	0.0757 ± 0.065	1.75 ± 0.052
UAAUCG	-0.029 ± 0.037	1.7 ± 0.017	0.149 ± 0.061	1.82 ± 0.17
UCGGAU	-0.57 ± 0.024	1.43 ± 0.097	-0.239 ± 0.0084	1.68 ± 0.06
CGCAAA	-0.531 ± 0.011	1.26 ± 0.097	-0.262 ± 0.015	1.47 ± 0.085
AGUAAC	-0.0857 ± 0.11	1.595 ± 0.012	0.271 ± 0.023	1.79 ± 0.076
CAUCCA	-0.794 ± 0.028	1.44 ± 0.016	-0.5192 ± 0.002	1.696 ± 0.011
GCAGUA	-0.229 ± 0.042	1.59 ± 0.035	0.0693 ± 0.0072	1.7 ± 0.12
CGCUGU	0.3 ± 0.092	1.776 ± 0.0024	0.433 ± 0.014	1.9 ± 0.13
CAGUUU	-0.341 ± 0.0054	1.5 ± 0.0081	-0.0345 ± 0.033	1.67 ± 0.12
ACAUUG	-0.689 ± 0.036	1.53 ± 0.024	-0.401 ± 0.11	1.69 ± 0.13
ACUAAU	-0.784 ± 0.024	1.47 ± 0.052	-0.433 ± 0.047	1.68 ± 0.11
CGGACG	-1.09 ± 0.056	1.77 ± 0.072	-1.17 ± 0.31	1.87 ± 0.11
CGAAAC	-0.432 ± 0.051	1.62 ± 0.048	-0.267 ± 0.02	1.77 ± 0.097
AUAGGG	-0.534 ± 0.02	1.41 ± 0.12	-0.187 ± 0.073	1.59 ± 0.15
